Experimental findings from the supplement of paper PMC9112550, “Optimization of the antimicrobial peptide Bac7 by deep mutational scanning” (BMC Biology, 2022) are described below.
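Further: peptides expressed intracellularly from a pBAD plasmid library in pooled LB shake-flask culture, induced with 0.3% L-arabinose, DNA abundance read by NGS, three biological replicates, DESeq2 with apeglm shrinkage.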

This data set concerns Escherichia coli TOP10. The data set can be described thus: shrunken log2 fold change of peptide-encoding DNA abundance (4.5 h post-induction vs induction); higher = less antimicrobial activity (less host growth inhibition). Conditions: time post-induction: 4.5 h; library: site-saturation at positions 5, 18, 19, 20.
On to RRIRARPPRLPRPRPRPCDSPRP, for which the “shrunken log2 fold change” value turned out to be 0.0469.
Turning to RRIRCRPPRLPRPRPRPPFQPRP, the “shrunken log2 fold change” value is 0.149.
In the case of RRIRERPPRLPRPRPRPIMHPRP, the “shrunken log2 fold change” value is -0.462.
The same measure for RRIRSRPPRLPRPRPRPIETPRP: -0.29; for RRIRIRPPRLPRPRPRPETNPRP: -0.264.
RRIRMRPPRLPRPRPRPTSPPRP: the “shrunken log2 fold change” value worked out at 0.278.
Regarding RRIRERPPRLPRPRPRPCFPPRP, the “shrunken log2 fold change” value is -0.166.
RRIRLRPPRLPRPRPRPHNMPRP: the “shrunken log2 fold change” value is -0.495.
Take RRIRQRPPRLPRPRPRPQWGPRP: the “shrunken log2 fold change” value is -0.161.
As for RRIRHRPPRLPRPRPRPGRWPRP, the “shrunken log2 fold change” value came out at 0.413.
As to RRIRWRPPRLPRPRPRPIDRPRP, the “shrunken log2 fold change” value is -0.156.
RRIRVRPPRLPRPRPRPLAEPRP: the “shrunken log2 fold change” value is 0.433.
The same measure for RRIRSRPPRLPRPRPRPKRCPRP: -0.0384; for RRIRYRPPRLPRPRPRPPHNPRP: -0.275.
Take RRIRQRPPRLPRPRPRPKNAPRP: the “shrunken log2 fold change” value turned out to be 0.0178.
The same measure for RRIRLRPPRLPRPRPRPDHLPRP: -0.0674; for RRIRFRPPRLPRPRPRPMVNPRP: -0.171; for RRIRARPPRLPRPRPRPGRPPRP: 0.801.
Turning to RRIRLRPPRLPRPRPRPDADPRP, the “shrunken log2 fold change” value came to 1.25.
With RRIRYRPPRLPRPRPRPSWSPRP, the “shrunken log2 fold change” value was -0.179.
The value for RRIRRRPPRLPRPRPRPLMFPRP was 0.0336; that for RRIRLRPPRLPRPRPRPVSIPRP was -0.321; that for RRIRTRPPRLPRPRPRPTHAPRP was 4.04.
Take RRIRLRPPRLPRPRPRPHANPRP: the “shrunken log2 fold change” value is -0.293.
The value for RRIRARPPRLPRPRPRPTRAPRP was 1; that for RRIRWRPPRLPRPRPRPPNDPRP was 0.0849; that for RRIRERPPRLPRPRPRPFYTPRP was -0.629.
For the sequence RRIRHRPPRLPRPRPRPTESPRP, the “shrunken log2 fold change” value is 0.0139.
For the sequence RRIRARPPRLPRPRPRPSDKPRP, the “shrunken log2 fold change” value was -0.197.
Take RRIRRRPPRLPRPRPRPQWSPRP: the “shrunken log2 fold change” value is -0.00927.
Take RRIRQRPPRLPRPRPRPNEKPRP: the “shrunken log2 fold change” value is -0.0522.
In the case of RRIRARPPRLPRPRPRPRCHPRP, the “shrunken log2 fold change” value amounted to 0.308.
The same measure for RRIRDRPPRLPRPRPRPRASPRP: 0.214.
RRIRWRPPRLPRPRPRPKSQPRP: the “shrunken log2 fold change” value was 0.263.
As to RRIRERPPRLPRPRPRPFSVPRP, the “shrunken log2 fold change” value is -0.213.
Regarding RRIRCRPPRLPRPRPRPVMQPRP, the “shrunken log2 fold change” value is -0.166.
For RRIRPRPPRLPRPRPRPIFNPRP, the “shrunken log2 fold change” value is -0.238.
As to RRIRPRPPRLPRPRPRPHHVPRP, the “shrunken log2 fold change” value was 0.0547.
The same measure for RRIRDRPPRLPRPRPRPYLPPRP: 0.00286; for RRIRVRPPRLPRPRPRPYSHPRP: -1.25.
RRIRARPPRLPRPRPRPYMQPRP: the “shrunken log2 fold change” value was -0.53.
As for RRIRKRPPRLPRPRPRPAFFPRP, the “shrunken log2 fold change” value is 0.411.
RRIRTRPPRLPRPRPRPVYQPRP: the “shrunken log2 fold change” value was -0.0843.
For RRIRIRPPRLPRPRPRPRAKPRP, the “shrunken log2 fold change” value was 0.139.
As to RRIRSRPPRLPRPRPRPNLGPRP, the “shrunken log2 fold change” value is -0.0959.
For RRIRWRPPRLPRPRPRPCEYPRP, the “shrunken log2 fold change” value is -0.379.
For the sequence RRIRFRPPRLPRPRPRPRVKPRP, the “shrunken log2 fold change” value was -0.154.
In the case of RRIRMRPPRLPRPRPRPTFPPRP, the “shrunken log2 fold change” value was 0.0878.
Regarding RRIRMRPPRLPRPRPRPKFMPRP, the “shrunken log2 fold change” value turned out to be 0.0431.
Regarding RRIRLRPPRLPRPRPRPKMKPRP, the “shrunken log2 fold change” value was -0.476.
Turning to RRIRNRPPRLPRPRPRPSVNPRP, the “shrunken log2 fold change” value was -0.201.
The same measure for RRIRLRPPRLPRPRPRPMQRPRP: 0.0784; for RRIRHRPPRLPRPRPRPQTYPRP: -0.193; for RRIRSRPPRLPRPRPRPETDPRP: 0.392.
Consider RRIRPRPPRLPRPRPRPETYPRP, for which the “shrunken log2 fold change” value is -0.0102.
The same measure for RRIRGRPPRLPRPRPRPACMPRP: 0.671.
For the sequence RRIRARPPRLPRPRPRPEATPRP, the “shrunken log2 fold change” value stood at 1.65.
Turning to RRIRIRPPRLPRPRPRPYQKPRP, the “shrunken log2 fold change” value was -0.243.
The same measure for RRIRSRPPRLPRPRPRPCLNPRP: -0.0696; for RRIRERPPRLPRPRPRPHLGPRP: -0.0405; for RRIRDRPPRLPRPRPRPHDLPRP: -0.0733.
As for RRIRIRPPRLPRPRPRPRSPPRP, the “shrunken log2 fold change” value stood at 0.0527.
The value for RRIRRRPPRLPRPRPRPPLMPRP was 0.708.
Consider RRIRGRPPRLPRPRPRPSFGPRP, for which the “shrunken log2 fold change” value turned out to be 0.0834.
Take RRIRDRPPRLPRPRPRPCGWPRP: the “shrunken log2 fold change” value stood at 0.335.
As for RRIRDRPPRLPRPRPRPDQSPRP, the “shrunken log2 fold change” value came out at 0.0019.
The same measure for RRIRLRPPRLPRPRPRPKMEPRP: -0.0157; for RRIRWRPPRLPRPRPRPPKDPRP: 0.0853; for RRIRYRPPRLPRPRPRPFSQPRP: 0.0654.
For the sequence RRIRWRPPRLPRPRPRPCHIPRP, the “shrunken log2 fold change” value is -0.414.
Consider RRIRSRPPRLPRPRPRPTGRPRP, for which the “shrunken log2 fold change” value was determined as 0.15.
RRIRSRPPRLPRPRPRPTVYPRP: the “shrunken log2 fold change” value amounted to 0.0113.
For the sequence RRIRNRPPRLPRPRPRPPMEPRP, the “shrunken log2 fold change” value was -0.203.
The same measure for RRIRWRPPRLPRPRPRPYKSPRP: -0.144; for RRIRERPPRLPRPRPRPSYAPRP: -0.176.
Take RRIRCRPPRLPRPRPRPNMEPRP: the “shrunken log2 fold change” value is -0.237.
As for RRIRIRPPRLPRPRPRPAYSPRP, the “shrunken log2 fold change” value is -0.534.
On to RRIRERPPRLPRPRPRPSWMPRP, for which the “shrunken log2 fold change” value was -0.416.
Turning to RRIRVRPPRLPRPRPRPHTDPRP, the “shrunken log2 fold change” value was -0.141.
As to RRIRTRPPRLPRPRPRPRGSPRP, the “shrunken log2 fold change” value stood at 0.177.
Regarding RRIRARPPRLPRPRPRPGQPPRP, the “shrunken log2 fold change” value was 0.00358.
Regarding RRIRVRPPRLPRPRPRPIDPPRP, the “shrunken log2 fold change” value was -0.0131.
Consider RRIRDRPPRLPRPRPRPLGSPRP, for which the “shrunken log2 fold change” value came to 0.2.
The value for RRIRNRPPRLPRPRPRPCYKPRP was -0.173; that for RRIRGRPPRLPRPRPRPNWAPRP was 0.363; that for RRIRPRPPRLPRPRPRPFLNPRP was -0.622.
Turning to RRIRCRPPRLPRPRPRPMAVPRP, the “shrunken log2 fold change” value amounted to 0.0112.
The same measure for RRIRMRPPRLPRPRPRPWMRPRP: 0.7; for RRIRNRPPRLPRPRPRPNHIPRP: -0.733.
As to RRIRVRPPRLPRPRPRPQAMPRP, the “shrunken log2 fold change” value is -0.00096.
In the case of RRIRFRPPRLPRPRPRPKKTPRP, the “shrunken log2 fold change” value worked out at 0.0466.
The value for RRIRDRPPRLPRPRPRPFYSPRP was -0.304; that for RRIRFRPPRLPRPRPRPKANPRP was 0.00613.
The value for RRIRIRPPRLPRPRPRPYAHPRP was -0.184.
Take RRIRCRPPRLPRPRPRPTCIPRP: the “shrunken log2 fold change” value was -0.307.
In the case of RRIRYRPPRLPRPRPRPEAEPRP, the “shrunken log2 fold change” value amounted to 0.137.
With RRIRLRPPRLPRPRPRPMMHPRP, the “shrunken log2 fold change” value turned out to be 0.0259.
As to RRIRDRPPRLPRPRPRPHKLPRP, the “shrunken log2 fold change” value stood at 0.00695.
The same measure for RRIRERPPRLPRPRPRPIYNPRP: -0.85; for RRIRFRPPRLPRPRPRPHIYPRP: -1.22.
The same measure for RRIRVRPPRLPRPRPRPEIPPRP: 0.054; for RRIRQRPPRLPRPRPRPLKRPRP: -0.0432.
RRIRKRPPRLPRPRPRPKHGPRP: the “shrunken log2 fold change” value came out at 0.157.
The same measure for RRIRYRPPRLPRPRPRPESMPRP: -0.267.
For RRIRDRPPRLPRPRPRPWAAPRP, the “shrunken log2 fold change” value turned out to be 0.00948.
In the case of RRIRVRPPRLPRPRPRPFQAPRP, the “shrunken log2 fold change” value is -0.127.
For the sequence RRIRYRPPRLPRPRPRPWMTPRP, the “shrunken log2 fold change” value is -0.663.
As to RRIRFRPPRLPRPRPRPFRRPRP, the “shrunken log2 fold change” value was -0.0629.
The value for RRIRTRPPRLPRPRPRPNHTPRP was -0.312; that for RRIRWRPPRLPRPRPRPGHAPRP was 0.234.
On to RRIRGRPPRLPRPRPRPLDWPRP, for which the “shrunken log2 fold change” value was determined as 1.07.
For RRIRNRPPRLPRPRPRPLLIPRP, the “shrunken log2 fold change” value worked out at 0.589.
For RRIRFRPPRLPRPRPRPDNCPRP, the “shrunken log2 fold change” value is -0.0284.
RRIRQRPPRLPRPRPRPPEKPRP: the “shrunken log2 fold change” value worked out at 0.917.
In the case of RRIRSRPPRLPRPRPRPCHEPRP, the “shrunken log2 fold change” value turned out to be 0.0697.
The value for RRIRARPPRLPRPRPRPIANPRP was 0.103; that for RRIRGRPPRLPRPRPRPGRDPRP was 0.358.
Turning to RRIRDRPPRLPRPRPRPFVYPRP, the “shrunken log2 fold change” value was -0.344.
Turning to RRIRYRPPRLPRPRPRPIAAPRP, the “shrunken log2 fold change” value was -0.158.
RRIRLRPPRLPRPRPRPGRYPRP: the “shrunken log2 fold change” value is -0.124.
For RRIRVRPPRLPRPRPRPPVNPRP, the “shrunken log2 fold change” value was 0.159.
Take RRIRQRPPRLPRPRPRPPCEPRP: the “shrunken log2 fold change” value was -0.00701.
Regarding RRIRKRPPRLPRPRPRPHCWPRP, the “shrunken log2 fold change” value came to 0.17.
On to RRIRHRPPRLPRPRPRPTWGPRP, for which the “shrunken log2 fold change” value is 0.0618.
Take RRIRSRPPRLPRPRPRPNVAPRP: the “shrunken log2 fold change” value is -0.0788.
